One substance from patent publication US7745192 can be followed below.

The target in the data set is human fibrinogen (UniProt P02671).

As to “thrombin resulting from action of Brown snake venom protease”, the “SDS PAGE banding patterns of washed fibrin clots” value is on record as “thrombin resulting from action of Brown snake venom protease converts fibrinogen to fibrin in a similar manner as normal α-thrombin”.
